Experimental data from the RNAGym collection of RNA variant scans (doi:10.1073/pnas.2313332121).

B1: TPR t1 (parent)
chain: GACCAAUCUGCCCUCAGAGCUCGAGAACAUCUUCGGAUGCAGAGGAGGCAGGCUUCGGUGGCGCGAUAGCGCCAACGUCCUCAACCUCCAAUGCAUCCCACCACAUGAUGAUGCCUGAAGAGCCUUGGUUUUUUG

Variants of: B1
Assay: polymerase ribozyme fitness, log enrichment relative to wild type (log ratio); higher = more active; in vitro selection for triplet polymerase activity
Procedure, shortened: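 Each subunit of a heterodimeric triplet polymerase ribozyme was represented by a PCR-built, transcribed mutant library that underwent triplicate single-round in vitro selection with frozen incubation at −7 °C. Extended constructs were recovered by gel excision, streptavidin-bead capture and RT-PCR, and Illumina sequencing of input and output libraries kept genotypes with ≥10 input reads and ≥1 read per output. Fitness is the logarithm of genotype enrichment relative to wild-type enrichment, from inverse-variance-weighted replicate averages, with a logarithm base of 2.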

Variant | polymerase ribozyme fitness (log ratio)
GACCAAUCUGCCCUCAGAGCUCGAGACCAUCUUCGGAUGCAGAGGAGGCAGGCUCCGGUGGCGCGAUAGCGCCAACGUCCUCAACCUCCAAUGCAUCCCACCAUAUGAUGAUGCCUGAAGAGCCUUGGUUUUUUG | -3.54
GACCAAUCUGCCCUCAGAGCUCGAGAGCAUCUUCGGAUGCAGAGGGGGCAGGCUUCGGUGGCGCGAUAGCGCCAACGUCCUCAACCUCCAAUGCAUCCCAACACAUGAUGAUGCCUGAAGAGCCUUGGUUUUUUG | -3.22
GACCAAUCUGCCCUCAGAGCUCGAGACCAUCUUCGGAUGCAGAGGAGGCAGGCUUCGGUGGCGCGAUAGCUCCAACGUCCUCAACCUCCAAUGCAUCCCACCACAUGAUGAUGCCUGAAGAGCCUUGGUUUUUUG | -3
GACCAAUCUGCCCUCAGAGCUCGAGACCAUCUUCGGAUGCAGAGGAGGCAGGCUUCGGUCGCGCGAUAGCGCGAACGUCCUCAACCUCCAAUGCAUCCCACCACAUGAUGAUGCCUGAAGAGCCUUGGUUUUUUG | -2.55
GACCAAUCUGCCCUCAGAGCUCGAGACCAUCUUCGGAUGCAGAGGAGGCAGGCUUCGGUGGCGCGAUAGCGCCAACGUCCCCAACCUCCAAUGCAUCCCACCACAUGAUGAUGCCUGAAGAGCAUUGGUUUUUUG | -2.25
GACCAAUCUGCCCUCAGAGCUCGAGACCAUCUUCGGAUGCAGAGGAGGCAGGCUUCGGUGUCGCGAUAGCGCCAACGUCCUCAACCUCCAAUGCAUCCCACCACAUGAUAAUGCCUGAAGAGGCUUGGUUUUUUG | -3.8
GACCAAUCUGCCCUCAGAGCUCGAGAGCAUCUUCGGAUGCAGGGGAGGCAGGCUUCGGUGGCCCGAUAGCGCCAACGUCCUCAACCUCCAAUGCAUCCCACCACAUGAUGAUGCCUGAAGAGCCUUGGUUUUUUG | -4.38
GACCAAUCUGCCCUCAGAGCUCGAGAGCAUCUUCGGAUGCGGAGGAGGCAGGCUUCGGUGGCGCGAUAGCGCCAACGUCCUCAACAUCCAAUGCAUCCCACCACAUGAUGAUGCCUGAAGAGCCUUGGUUUUUUG | -2.64
GACCAAUCUGCCCUCAGAGCUCGAGAGCAUCUUCGGAUGCAGUGGAAGCAGGCUUCGGUGGCGCGAUAGCGCCAACGUCCUCAACCUCCAAUGCAUCUCACCACAUGAUGAUGCCUGAAGAGCCUUGGUUUUUUG | -5.67
GACCAAUCUGCCCUCAGAGCUCGAGACCAUCUUCGGAUGCAGAGGAGGCAGGCUCCGGUGGCGCGAUAGUGCCAACGUCCUCAACCUCCAAUGCAUCCCACCACAUGAUGAUGCCUGAAGAGCCUUGGGUUUUUG | -4.99
GACCAAUCUGCCCUCAGAGCUCGAGAGCUUCUUCGGAUGCAGAGGAGGCAGGCUUCGGUGGCGCGAUAGCGCUAACGUCCUCAACCUCCAAUGCAUCCCACCACAUGAUGAUGCCUGAAGAGCCAUGGUUUUUUG | -3.73
GACCAAUCUGCCCUCAGAGCUCGAGACCAUCUUCGGAUGCAGAGGAGGCAGGCUUCGGUGGCGCGAUAGCGCCAACGUCCUCAACCUCCAAUGCAUCCCACCACAUGAUAAUGCCUGAAGAGCCUUGGUUUUUUG | -4.22
GACCAAUCUGCCCUCAGAGCUCGAGACCAUCUUCGGAUGCAGAGGAGGCAGGCUUCGGUGGCGCGAUAGCGCCAACGUCCUCAACCUCCAAUGCAUCCCACCACAUGAUGACGCCUGAAGAGCCUUGGUUUUUUG | -1.2
GACCAAUCUGCCCUCAGAGCUCGAGACCAUCUUCGGAUGCAGAGGAGGCAGGCUUCGGUGGCGCGAUAGCGCCAACGCCCUCAACCUCCAAUGCAUCCCACCACAUGAUGAUGCCUGAAGAGCCUUGGUUUUUUG | -3.31
GACCAAUCUGCCCUCAGAGCUCGAGAGCGUCUUCGGAUGCAGAGAAGGCAGGCUUGGGUGGCGCGAUAGCGCAAGCGUCCUCAACCUCCAAUGCAUCCCACCAAAUAAUGAUGCCUUAAGAGCCUUGGUUUUUUG | -6.73
GACCAAUCUGCCCUCAGAGCUCGAGACCAUCUUCGGAUGCAGAGGAGGCAGGCUGCGGUGGCGCGAUAGCGCCAACGUCCUCAACCUCCAAUGCAUCCCACCACAUGAUGAUGCCUGAAGAGCCUUGGUUUUUUG | -2.72
GACCAAUCUGCCCUCAGAGCUCGAGAGCAUCUUCGGAUGCAGAGGAGGCAGGCUUCGGUGGCGCGAUAGCGCCGACGUCCUCAACCUCCAAUGCAUCCCACCACAUGAUGAUGCAUGAAGAGCCUUGGUUUUUUG | -4.15
GACCAAUCUGCCCUCAGAGCUCGAGAGCAUCUUCGGAUGCGGAGGAGGCAGGCUUCGGUGGCGCGAUAGCACCAACGUCCUCAACCUCCAAUGCAUCCCACCACAUGAUGAUGCCUGAAGAGCCUUGGUUUUUUG | -2.99
GACCAAUCUGCCCUCAGAGCUCGAGAGCAUCUUCGGAUGCAGAGGAGGCAGGCUUCGGUGGCGCGAUAGCGCCCACGUCCUCAACCUCCAAUGCAUCCCACCACAUGAUGAUGCGUGAAGAGCCUUGGUUUUUUG | -6.8
GACCAAUCUGCCCUCAGAGCUCGAGACCAUCUUCGGAUGCAGAGGAGGCAGGCCUCGGUGGCGCGAUAGUGCCAACGUCCUCAACCUCCAAUGCAUCCCACCACAUGAUGAUGCCUGAAGAGCCUUGGUUUUUUG | -4.38
GACCAAUCUGCCCUCAGAGCUCGAGACCAUCUUCGGAUGCAGAGGAGGCAGGCUUCGGUGGCGCGAUAGCGCCAACAUCCUCAACCUCCAAUGCAUCCCACCACAUGAUGAUGCCUGAAGAGCCUUGGUUUUUUG | -4.66
